Two molecules from patent US20120178139A1 (published 2012) can be followed below.

The target in test [1] is T1, mouse glycophorin-A on mouse erythrocytes (mouse, UniProt P14220 1-168). Description: photo-crosslinking of biotinylated peptide to whole mouse erythrocytes, streptavidin pull-down and streptavidin Western blot. The protocol:
When whole erythrocytes were incubated with ERY1 peptide functionalized with biotin and a photoactivatable crosslinker, a single 28 kDa protein was conjugated with the peptide-biotin complex, as detected by a streptavidin Western blot (FIG. 2A). The reaction lysate was extensively washed and purified using streptavidin magnetic beads to ensure no unlabeled proteins from the erythrocyte lysate remained. […] The mismatch peptide, […] (SEQ ID NO:2), was designed to contain the same amino acid residues as ERY1, and to match its hydrophobicity topography. […] Anti-GYPA Western blotting of the same purified samples from the crosslinking reaction confirmed that the candidate biotinylated protein was indeed GYPA (FIG. 2B).
In brief, peptides were solubilized in PBS/DMF and reacted with 1.05 equivalents of Mts-atf-biotin overnight at 4° C. Following clarification of the reaction by centrifugation, biotinylated peptide was incubated with erythrocytes at in PBSA-50 for 1 h at 37° C., cells were washed twice in fresh PBS, and were UV irradiated at 365 nm for 8 min at room temperature. Cells were lysed by sonication and the lysate was purified using streptavidin-coated magnetic beads (Invitrogen). The eluate was run on an SDS-PAGE and transferred to a PVDF membrane, and immunoblotted with streptavidin-HRP(R&D Systems) or anti-mouse GYPA.
For orientation: A western blot detects proteins with antibodies after separation by electrophoresis.

Test [2] deals with T1, mouse glycophorin-A on mouse …. Briefly: in vivo, geometric mean fluorescence of circulating erythrocytes by flow cytometry, one-phase exponential decay. The protocol:
Consistent with glycophorin-A association, ERY1-OVA bound to erythrocytes (CD45⁻) but not to leukocytes (CD45⁺). ERY1-OVA binding was unbiased as to the apoptotic state of the erythrocytes, binding strongly to both annexin-V⁺ and annexin-V⁻ CD45⁻ populations (FIG. 9b).
150 μg of ERY1-OVA or OVA in 0.9% saline (B. Braun) in a volume of 100 μL was injected intravenously into the tail of 8-12 week old female C57BL/6 mice while under anesthesia with isoflurane. Care was taken to ensure mice were kept at 37 C with a heating pad during experimentation. At predetermined time points, 5 μL of blood was taken from a small incision on the tail, diluted 100-fold into 10 mM EDTA in PBS, washed three times with PBS with 10 mg/mL BSA, and analyzed for OVA content by flow cytometry and ELISA. OVA was quantified by sandwich ELISA, using a mouse monoclonal anti-OVA antibody (Sigma) for capture, a polyclonal rabbit anti-OVA antibody (AbD SEROTEC) for detection, a goat anti-rabbit-IgG-HRP antibody (BioRad) for final detection, followed by TMB substrate (GE Life Sciences). Hematological characterization was performed on an ADVIVA 2120 Hematology System (Siemens). Erythrocyte-bound ERY1-GST was detected by incubating labeled cells with goat anti-GST (GE Healthcare Life Sciences), followed by incubation with AlexaFluor488 donkey anti-goat (Invitrogen), and analyzed by flow cytometry. […]
(In general: Flow cytometry measures light scatter and fluorescence of single cells or particles in a stream.)

For test [3] the target is unchanged. Description: equilibrium binding to mouse erythrocytes, flow cytometry, one-site binding fit.

B1: mismatch peptide, soluble, biotinylated (H2N-PLLTVGMDLWPWGGSGCRG-CONH2 conjugated to Mts-Atf-biotin) (peptide)
peptide: H-PLLTVGMDLWPWGGSGCRG-NH2
modifications: not fully specified (residue 17); also: conjugated to Mts-Atf-biotin
notes: Same amino acids as ERY1, scrambled
As to B1, the binding result in test [1] is listed as “no binding”.

B2: ERY1-OVA (ovalbumin chemically conjugated with ERY1 peptide through SMCC) (other)
chain: GSIGAASMEFCFDVFKELKVHHANENIFYCPIAIMSALAMVYLGAKDSTRTQINKVVRFDKLPGFGDSIEAQCGTSVNVHSSLRDILNQITKPNDVYSFSLASRLYAEERYPILPEYLQCVKELYRGGLEPINFQTAADQARELINSWVESQTNGIIRNVLQPSSVDSQTAMVLVNAIVFKGLWEKAFKDEDTQAMPFRVTEQESKPVQMMYQIGLFRVASMASEKMKILELPFASGTMSMLVLLPDEVSGLEQLESIINFEKLTEWTSSNVMEERKIKVYLPRMKMEEKYNLTSVLMAMGITDVFSSSANLSGISSAESLKISQAVHAAHAEINEAGREVVGSAEAGVDAASVSEEFRADHPFLFCIKHIATNAVLFFGRCVSP
peptide: WMVLPWLPGTLDGGSGCRG
modifications: C-terminal amide; cysteine side chain conjugated via SMCC to lysines of OVA; lysine side chains carry SMCC linked to the cysteine of the ERY1 peptide
notes: also called ERY1-conjugated antigen
For orientation: Kd means the concentration at which binding is half-saturated. Low values mean a tighter complex, high ones a looser complex. B2 showed a cell-surface half-life in test [2] of 17.2 h. The Kd in test [3] was 6.2 nM.
